Assay results from PMC10950897, “VCF1 is a p97/VCP cofactor promoting recognition of ubiquitylated p97-UFD1-NPL4 substrates” (Nature Communications, 2024).

Legend:
[1] = tested on: NPL4, U2OS/Ub(G76V)-GFP cells; assay: Immunoblot of siRNA knockdown efficiency; type: cell-based, human
Experimental: All siRNAs (Sigma) were used at 20 nM and transfected with Lipofectamine RNAiMAX reagent (Thermo) according to manufacturer’s instructions. The following siRNA oligonucleotides were used: Non-targeting control (CTRL): 5′-[…]-3′; VCF1(#1): 5’-[…]-3’; VCF1(#2): 5’-[…]-3’; p47: 5’-[…]-3’; NPL4: 5’-[…]-3’; FAF1: 5′-[…]-3′; p97: Dharmacon SmartPool (D-008727).
Immunoblotting was performed as previously described. Immunoprecipitation (IP) of HA-tagged proteins was performed using Anti-HA Affinity matrix (Roche) under denaturing conditions, unless otherwise stated. GFP-trap and […] Fab-trap agarose (Chromotek) were used according to manufacturer’s instructions. Cell lysis was performed using RIPA buffer (140 mM NaCl; 10 mM Tris-HCl, pH 8.0; 0.1% sodium deoxycholate; 1% Triton X-100; 0.1% SDS; 1 mM EDTA; 0.5 mM EGTA) or EBC buffer (50 mM Tris, pH 7.5; 150 mM NaCl; 1 mM EDTA; 0.5% NP-40, 1 mM DTT). IPs were washed in non-denaturing buffer (50 mM Tris-HCl, pH 7.5; 150 mM NaCl; 0.5 mM EDTA). Cell lysis and IP under partially denaturing conditions were performed using denaturing buffer (20 mM Tris-HCl, pH 7.5; 50 mM NaCl; 0.5% sodium deoxycholate; 0.5% NP-40; 0.5% SDS; 1 mM EDTA). […]

Ub(G76V)-GFP, U2OS cells = assay: QIBC of Ub(G76V)-GFP after siRNA; type: cell-based, human; settings: siRNA 20 nM, QIBC >10,000 cells
Experimental: (§1) U2OS (catalog no. HTB-96) cells were obtained from ATCC. HEK293-EBNA1-6E cells were a kind gift from Yves Durocher (National Research Council Canada, Montreal, Canada). All mammalian cell lines were cultured under standard conditions at 37 °C and 5% CO2 in DMEM (Thermo) supplemented with 10% FBS (v/v) and penicillin-streptomycin (Thermo). Recombination cloning-compatible U2OS cells were generated using the Flp-In T-Rex Core Kit (Thermo) according to the manufacturer’s instructions and maintained under selection using Blasticidin (Invivogen) and Zeocin (Thermo). To generate cell lines stably expressing GFP-VCF1, U2OS Flp-In T-Rex cells (Thermo) were co-transfected with GFP-VCF1 constructs and pOG44 (Thermo) plasmids, followed by selection with Hygromycin (Invitrogen). Single clones were carefully screened for uniform expression of ectopic GFP-VCF1 at low levels and maintained under selection with Blasticidin and Hygromycin. To induce GFP-VCF1 expression, cells were treated with Doxycycline (DOX) (0.5 µg/ml) for 16 h. U2OS cell lines stably expressing Ub(G76V)-GFP or Ub(G76V)-GFP-20AA were described previously. A U2OS cell line stably expressing Ub(G76V)-GFP-NES was generated under G418 (Invivogen) selection. […]
(§2) Mammalian cells grown on coverslips were fixed in formalin buffer (VWR) for 15 min at room temperature (RT). […] Quantitative image-based cytometry (QIBC) was performed as described. […]

[2] = tested on: Ub(G76V)-GFP-NES, U2OS cells; assay: Imaging of Ub(G76V)-GFP-NES after siRNA or p97 inhibitor; type: cell-based, human; settings: siRNA 20 nM or p97i (NMS-873) 2 h
Experimental: as §1, §2

p97 = assay: GFP IP of GFP-VCF1 alanine mutants from U2OS cells; type: binding, human; settings: full-length GFP-VCF1, U2OS
Experimental: (§3) Immunoblotting was performed as previously described. Immunoprecipitation (IP) of HA-tagged proteins was performed using Anti-HA Affinity matrix (Roche) under denaturing conditions, unless otherwise stated. GFP-trap and […] Fab-trap agarose (Chromotek) were used according to manufacturer’s instructions. Cell lysis was performed using RIPA buffer (140 mM NaCl; 10 mM Tris-HCl, pH 8.0; 0.1% sodium deoxycholate; 1% Triton X-100; 0.1% SDS; 1 mM EDTA; 0.5 mM EGTA) or EBC buffer (50 mM Tris, pH 7.5; 150 mM NaCl; 1 mM EDTA; 0.5% NP-40, 1 mM DTT). IPs were washed in non-denaturing buffer (50 mM Tris-HCl, pH 7.5; 150 mM NaCl; 0.5 mM EDTA). Cell lysis and IP under partially denaturing conditions were performed using denaturing buffer (20 mM Tris-HCl, pH 7.5; 50 mM NaCl; 0.5% sodium deoxycholate; 0.5% NP-40; 0.5% SDS; 1 mM EDTA). All lysis and wash buffers were supplemented with 1 mM fresh PMSF Protease Inhibitor (Thermo), complete EDTA-free protease inhibitor Cocktail Tablets (Roche), 1.25 mM N-ethylmaleimide (Sigma) and 50 µM PR-619 (Calbiochem).

[3] = tested on: p97-UFD1-NPL4 binding to K48-Ub2-7; assay: FLAG IP: p97-UFD1-NPL4 binding to K48-linked ubiquitin chains, purified proteins; type: biochemical, human; settings: high protein amounts, mild buffer
Experimental: All in vitro binding experiments were performed in EBC or RIPA buffer as indicated. Recombinant Biotin-tagged K48-linked poly-ubiquitin chains (2−7) and K48-linked poly-ubiquitin chains (2−16) were purchased from R&D Systems and Enzo Life Science, respectively. Recombinant proteins were incubated with Strep-Tactin Sepharose (IBA), Glutathione agarose (Gold Biotechnology) or […] Fab-trap agarose (ChromoTek) overnight on an end-over-end rotator at 4 °C, washed six times with EBC or RIPA buffer, and resuspended in 2×Laemmli sample buffer. For p97, VCF1 or p47 pulldowns, antibodies (0.5 µg/sample) were coupled to agarose beads, incubated with recombinant proteins or cell lysates and washed with the indicated buffer. To assess p97-UFD1-NPL4 binding to ubiquitylated proteins in total cell extracts, U2OS cells were lysed in EBC buffer supplemented with protease and phosphatase inhibitors, sonicated and incubated on ice for 10 min. Lysates were cleared by centrifugation for 10 min at 16,100 × g. Cell lysate (40 µg) was added to recombinant proteins in EBC buffer, incubated overnight on the rotator with […] Fab-trap agarose (ChromoTek), and beads were washed six times.

p97 (His6-p97 WT) = target: T1, p97 (His6-p97 WT) (Homo sapiens, UniProt P55072); assay: SPR: binding to immobilized His6-p97 WT; settings: N167A mutants; in vitro binding experiments and SPR, up to 300 nM (peptides) or 100 nM (full-length)
T1 construct: Coomassie Blue staining of full-length and truncated His6-p97 proteins purified from E; made in house; host or cells: E. coli BL21(DE3)
T1 sequence (P55072 whole entry, the tested form may be a part): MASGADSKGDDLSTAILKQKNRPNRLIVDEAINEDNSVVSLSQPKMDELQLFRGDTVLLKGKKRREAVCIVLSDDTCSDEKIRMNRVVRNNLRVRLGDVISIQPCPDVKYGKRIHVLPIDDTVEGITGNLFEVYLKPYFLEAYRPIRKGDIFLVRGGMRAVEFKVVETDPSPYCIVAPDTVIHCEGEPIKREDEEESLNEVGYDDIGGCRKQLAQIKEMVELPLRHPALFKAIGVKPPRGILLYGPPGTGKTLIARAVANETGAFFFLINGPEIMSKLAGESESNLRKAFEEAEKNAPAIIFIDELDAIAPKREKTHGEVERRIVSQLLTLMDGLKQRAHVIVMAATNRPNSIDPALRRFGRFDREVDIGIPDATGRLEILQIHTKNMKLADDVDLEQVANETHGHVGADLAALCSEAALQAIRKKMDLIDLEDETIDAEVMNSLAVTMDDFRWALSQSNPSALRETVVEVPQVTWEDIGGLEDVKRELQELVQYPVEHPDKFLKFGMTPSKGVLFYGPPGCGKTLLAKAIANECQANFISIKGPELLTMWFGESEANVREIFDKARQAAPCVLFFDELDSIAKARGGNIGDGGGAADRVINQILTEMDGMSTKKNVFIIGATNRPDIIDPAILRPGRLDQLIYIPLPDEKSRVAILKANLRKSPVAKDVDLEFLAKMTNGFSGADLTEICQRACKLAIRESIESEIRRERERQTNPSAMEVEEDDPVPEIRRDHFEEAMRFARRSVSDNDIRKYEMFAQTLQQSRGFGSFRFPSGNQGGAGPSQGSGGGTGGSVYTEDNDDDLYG
Experimental: Surface Plasmon Resonance (SPR)
All SPR experiments were performed at 25 °C on a Biacore T200 instrument equipped with CM5 or CM7 sensor chips (Cytiva, Uppsala, Sweden). SPR running buffers and amine-coupling reagents (N-ethyl-N’-(3-dimethlyaminoproply)carbodiimide (EDC), N-hydroxysuccinimide (NHS), and ethanolamine HCl) were purchased from Cytiva. 1x PBS-P (11.9 mM NaH2PO4-Na2HPO4, pH 7.4; 137 mM NaCl; 2.7 mM KCl; 0.005% surfactant P20) supplemented with 0.5 mM TCEP was used as running buffer for the immobilization and the binding experiments with Strep-HA-VCF1 full-length proteins. For the VCF1 C-terminal peptide binding studies, 2% DMSO was additionally included in the running buffer. Eight solvent correction samples ranging from 1.5% DMSO to 2.8% DMSO prepared in either PBS-P, 0.5 mM TCEP or Tris-based buffer were used to correct buffer/DMSO mismatches. The CM5 chip was used for the kinetic analysis of the interactions between p97 proteins and VCF1 full-length proteins or VCF1 C-terminal peptides. p97 was immobilized at different densities on the carboxymethyl dextran sensor chip surface by amine-coupling chemistry. For kinetic analysis, p97 was immobilized at low density (~400 RU) on flow cells 2 (Fc2) and 3 (Fc3), respectively, of a CM5 chip. […] The dissociation rate of the p97-VCF1 complexes was monitored for 400 s. […] Binding experiments were measured in triplicates. […]

p97 ATPase = assay: ATPase assay; type: biochemical, human; settings: p97 25 nM, ATP 375 μM
Experimental: For ATPase assays, 1 ml of 5x assay buffer (250 mM Tris, pH 7.4; 100 mM MgCl2; 5 mM EDTA) was mixed with 3 ml water, 5 μl 0.5 M TCEP and 5 μl 10% Triton X. To 40 ul of this assay buffer, recombinant proteins were added, mixed and incubated for 30 min. Final protein concentrations were as follows: p97 (25 nM), VCF1 (range of 0, 0.025, 1, 10 and 25 nM). The reactions were started by adding 10 μl ATP (final concentration of 375 μM) to the 40 μl reactions in a 96 well plate. After 35 min at room temperature, reactions were stopped by adding 50 μl BIOMOL Green reagent (Enzo Life Sciences). Absorbance at 635 nm was measured after 4 min and the relative ATPase activity calculated. Reactions were performed in duplicates and repeated three times.

[4] = tested on: GFP-VCF1 WT / N167A interactome, U2OS cells; assay: GFP IP mass spectrometry, comparison of VCF1 WT and N167A interactomes (WT/N167A); type: binding, human; settings: stably expressed GFP-VCF1, MS interactome
Experimental: U2OS (catalog no. HTB-96) cells were obtained from ATCC. HEK293-EBNA1-6E cells were a kind gift from Yves Durocher (National Research Council Canada, Montreal, Canada). All mammalian cell lines were cultured under standard conditions at 37 °C and 5% CO2 in DMEM (Thermo) supplemented with 10% FBS (v/v) and penicillin-streptomycin (Thermo). Recombination cloning-compatible U2OS cells were generated using the Flp-In T-Rex Core Kit (Thermo) according to the manufacturer’s instructions and maintained under selection using Blasticidin (Invivogen) and Zeocin (Thermo). To generate cell lines stably expressing GFP-VCF1, U2OS Flp-In T-Rex cells (Thermo) were co-transfected with GFP-VCF1 constructs and pOG44 (Thermo) plasmids, followed by selection with Hygromycin (Invitrogen). Single clones were carefully screened for uniform expression of ectopic GFP-VCF1 at low levels and maintained under selection with Blasticidin and Hygromycin. To induce GFP-VCF1 expression, cells were treated with Doxycycline (DOX) (0.5 µg/ml) for 16 h. U2OS cell lines stably expressing Ub(G76V)-GFP or Ub(G76V)-GFP-20AA were described previously. A U2OS cell line stably expressing Ub(G76V)-GFP-NES was generated under G418 (Invivogen) selection. Clones with low baseline GFP expression were visually screened for low basal GFP expression. All cell lines used in this study were regularly tested negative for mycoplasma infection and were not authenticated.
as §3
GFP-Trap agarose (Chromotek) pulldowns were subjected to partial on-bead digestion for peptide elution, by addition of 100 µl of elution buffer (50 mM Tris, pH 7.5; 2 M urea; 2 mM DTT; 20 µg/ml trypsin) and incubation at 37 °C for 30 min. To carry out alkylation, 25 mM CAA was added to the samples, which were then left to digest overnight at room temperature. Digestion was halted by introducing 1% TFA. Purification and desalting of peptides were done using SDB-RPS StageTips. This process required preparing two layers of SDB-RPS with 100 µl of wash buffer (0.2% TFA in H2O), onto which the peptides were loaded. After centrifugation for 5 min at 500 × g, peptides were washed using 150 µl wash buffer, eluted with 50 µl elution buffer (80% ACN; 1% ammonia) and vacuum-dried.
Liquid chromatography-mass spectrometry (LC-MS) analysis was conducted using an EASY-nLC-1200 system (Thermo Fisher Scientific), coupled with a timsTOF Pro spectrometer and a nano-electrospray ion source (Bruker Daltonik). […]

Compound: 5’-CACGCCUAAUCCUGUUGACAA-3’ [NPL4 siRNA]
- reduction in NPL4 abundance [1]: ~ 50%
- effect on Ub(G76V)-GFP level (Ub(G76V)-GFP, U2OS cells): increased Ub(G76V)-GFP abundance as expected

Compound: Cc1cc(OCc2nnc(SC3CCCC3)n2-c2cccnc2)ccc1-c1ccc(S(C)(=O)=O)cc1 [NMS-873]
- effect on Ub(G76V)-GFP-NES [2]: strong Ub(G76V)-GFP-NES accumulation

Compound: VCF1 N167A: full-length VCF1 with N167A point mutation in VRM
- effect of alanine scan on p97 binding (p97): essential for VCF1 binding to p97
- residual binding of N167A mutant to p97 [3]: very weak residual binding to p97
- binding to p97 WT (in words) (p97 (His6-p97 WT)): abrogated binding to p97
- relative ATPase activity (p97 ATPase; 0.025 nM, replicate 1): 1.034
- relative ATPase activity (p97 ATPase; 0.025 nM, replicate 2): 0.974
- relative ATPase activity (p97 ATPase; 0.025 nM, replicate 3): 1.059
- relative ATPase activity (p97 ATPase; 1 nM, replicate 1): 1.009
- relative ATPase activity (p97 ATPase; 1 nM, replicate 2): 1.013
- relative ATPase activity (p97 ATPase; 1 nM, replicate 3): 1.024
- relative ATPase activity (p97 ATPase; 10 nM, replicate 1): 1.046
- relative ATPase activity (p97 ATPase; 10 nM, replicate 2): 0.967
- relative ATPase activity (p97 ATPase; 10 nM, replicate 3): 0.99
- p97 binding of N167A vs WT [4]: strong loss of p97 binding
